In patent publication US6979673B1, “Method and compositions for modulating somatolactogenic functions” (Trustees of the University of Pennsylvania, priority 1999, dated 2005):

Tested on: Nb2 cells
Experiment: PRL-driven proliferation of Nb2 cells (3H-thymidine)
Format: cell-based, rat
Procedure: The effect of exogenous CypB on PRL-driven proliferation was examined with the rat Nb2 T-cell and the human T47D breast cancer line. […] This dose-dependent biphasic effect was most prominent at physiologic concentrations ([…]) of CypB and PRL (50 pM) found in human serum. […] To determine the effect of CypB on cellular growth driven by the larger family of cytokines, to which PRL belongs, proliferation driven by interleukin-2 (IL-2), IL-3 and GH was examined.
Nb2-cells (5×10^4; PRL-dependent, rat T-lymphoma) were plated in each well of 96 well plates in a defined DMEM-serum free medium (0.1 mM 2-mercaptoethanol, 1% penicillin/streptomycin, and 1% ITS+ (Calbiochem)). Cells were rested for 24 hours at 37° C. in this defined medium in the absence of PRL before the addition of 5–500 pM PRL (either as human pituitary isolated PRL, National Hormone and Pituitary Program, NIDDK; recombinant human PRL from E. coli, Genzyme; or recombinant human PRL from Drosophila S2 cells) alone or premixed with 1–2000 fold excess of purified CypB. Parallel studies were performed using human pituitary-derived GH (National Hormone and Pituitary Program, NIDDK). Cultures were incubated for 48 hours at 37° C. and proliferation was evaluated by the addition of 0.5 μCi of ^3H-thymidine for four hours followed by harvesting and scintillography. […]

B1: Myc-tagged PRL: recombinant myc-tagged human PRL expressed and secreted by Drosophila S2 cells (protein)
chain: LPICPGGAARCQVTLRDLFDRAVVLSHYIHNLSSEMFSEFDKRYTHGRGFITKAINSCHTSSLATPEDKEQAQQMNQKDFLSLIVSILRSWNEPLYHLVTEVRGMQEAPEAILSKAVEIEEQTKRLLEGMELIVSQVHPETKENEIYPVWSGLPSLQMADEESRLSAYYNLLHCLRRDSHKIDNYLKLLKCRIIHNNNC
modifications: left off: small tags and cut ends
notes: recombinant myc-tagged human PRL expressed and secreted by Drosophila S2 cells
bioactivity in Nb2 bioassays (protein expressed in Drosophila S2 cells): functionally bioactive

B2: PRL: somatolactogenic hormone prolactin; human pituitary isolated or recombinant human PRL (protein)
chain: B1 chain
modifications: left off: small tags and cut ends
PRL concentration at which Nb2 growth curves plateau (PRL alone, sigmoid shaped growth curves): approximately 2 ng PRL/ml
